# In paper PMC3691878:
# Legend:
# Assay in all cases: SEC
# [1] = molecular target: rainbow trout (Oncorhynchus mykiss) BALM (rainbow trout (Oncorhynchus mykiss))
# [2] = molecular target: rainbow trout (Oncorhynchus mykiss) RANKL (rainbow trout (Oncorhynchus mykiss))
# [3] = molecular target: rainbow trout (Oncorhynchus mykiss) TRAIL-like (rainbow trout (Oncorhynchus mykiss))
substance,measurement,setting,value
rainbow trout (Oncorhynchus mykiss) BALM (ligand),stoichiometry N,[1],3
rainbow trout (Oncorhynchus mykiss) RANKL (ligand),stoichiometry N,[2],3
rainbow trout (Oncorhynchus mykiss) TRAIL-like (ligand),stoichiometry N,[3],3
